The target of data set [1] is T1, Peptide 10: EDPIYVTLEGGKKK (version of peptide 2 used for the kinetic experiments).
T1 chain: EDPIYVTLEGGKKK

The target in data set [2] is T2, Peptide 11: DEAIYATVAGGKKK (version of peptide 5 used for the kinetic experiments).
T2 chain: DEAIYATVAGGKKK

The text below walks through data of patent US20190302117.

B1: BTK as GST fusion protein (protein)
chain: MAAVILESIFLKRSQQKKKTSPLNFKKRLFLLTVHKLSYYEYDFERGRRGSKKGSIDVEKITCVETVVPEKNPPPERQIPRRGEESSEMEQISIIERFPYPFQVVYDEGPLYVFSPTEELRKRWIHQLKNVIRYNSDLVQKYHPCFWIDGQYLCCSQTAKNAMGCQILENRNGSLKPGSSHRKTKKPLPPTPEEDQILKKPLPPEPAAAPVSTSELKKVVALYDYMPMNANDLQLRKGDEYFILEESNLPWWRARDKNGQEGYIPSNYVTEAEDSIEMYEWYSKHMTRSQAEQLLKQEGKEGGFIVRDSSKAGKYTVSVFAKSTGDPQGVIRHYVVCSTPQSQYYLAEKHLFSTIPELINYHQHNSAGLISRLKYPVSQQNKNAPSTAGLGYGSWEIDPKDLTFLKELGTGQFGVVKYGKWRGQYDVAIKMIKEGSMSEDEFIEEAKVMMNLSHEKLVQLYGVCTKQRPIFIITEYMANGCLLNYLREMRHRFQTQQLLEMCKDVCEAMEYLESKQFLHRDLAARNCLVNDQGVVKVSDFGLSRYVLDDEYTSSVGSKFPVRWSPPEVLMYSKFSSKSDIWAFGVLMWEIYSLGKMPYERFTNSETAEHIAQGLRLYRPHLASEKVYTIMYSCWHEKADERPTFKILLSNILDVMDEES
As to B1, in data set [1], the 2/5 kcat/Km ratio (peptide 2 against peptide 5) is 0.31; the Km (as a rule, the substrate concentration at which the rate is half of its maximum) was determined as 64 µM; the catalytic constant (kcat) (commonly the number of substrate molecules converted per active site and unit of time at saturation) was 0.061 s⁻¹; the kcat/Km (as a rule, the second-order rate constant that governs catalysis at low substrate concentration) came out at 970 M⁻¹ s⁻¹. In data set [2], the Km came to 84 µM, the kcat turned out to be 0.26 s⁻¹ and the kcat/Km is 3170 M⁻¹ s⁻¹.

B2: His6-ALK 1090-1416 (protein)
chain: HHHHHHTDYNPNYCFAGKTSSISDLKEVPRKNITLIRGLGHGAFGEVYEGQVSGMPNDPSPLQVAVKTLPEVCSEQDELDFLMEALIISKFNHQNIVRCIGVSLQSLPRFILLELMAGGDLKSFLRETRPRPSQPSSLAMLDLLHVARDIACGCQYLEENHFIHRDIAARNCLLTCPGPGRVAKIGDFGMARDIYRASYYRKGGCAMLPVKWMPPEAFMEGIFTSKTDTWSFGVLLWEIFSLGYMPYPSKSNQEVLEFVTSGGRMDPPKNCPGPVYRIMTQCWQHQPEDRPNFAIILERIEYCTQDPDVINTALPIEYGPLVEEEEKVPVRPK
Turning to B2, in data set [1], the 2/5 kcat/Km ratio (peptide 2 against peptide 5) worked out at 1.23, the Km was greater than 200 µM, the kcat was greater than 0.02 s⁻¹ and the kcat/Km was 95 M⁻¹ s⁻¹. Also, in data set [2], the Km is greater than 200 µM, the kcat is greater than 0.02 s⁻¹ and the catalytic efficiency (kcat/Km) amounted to 79 M⁻¹ s⁻¹.

B3: GST-FLT3 564-993 (intracellular portion of human FLT3 fused to GST) (protein)
chain: HKYKKQFRYESQLQMVQVTGSSDNEYFYVDFREYEYDLKWEFPRENLEFGKVLGSGAFGKVMNATAYGISKTGVSIQVAVKMLKEKADSSEREALMSELKMMTQLGSHENIVNLLGACTLSGPIYLIFEYCCYGDLLNYLRSKREKFHRTWTEIFKEHNFSFYPTFQSHPNSSMPGSREVQIHPDSDQISGLHGNSFHSEDEIEYENQKRLEEEEDLNVLTFEDLLCFAYQVAKGMEFLEFKSCVHRDLAARNVLVTHGKVVKICDFGLARDIMSDSNYVVRGNARLPVKWMAPESLFEGIYTIKSDVWSYGILLWEIFSLGVNPYPGIPVDANFYKLIQNGFKMDQPFYATEEIYIIMQSCWAFDSRKRPSFPNLTSFLGCQLADAEEAMYQNVDGRVSECPHTYQNRRPFSREMDLGLLSPQAQVEDS
On to B3, for which, in data set [1], the Km turned out to be 41 µM, the kcat turned out to be 0.013 s⁻¹ and the kcat/Km came to 304 M⁻¹ s⁻¹.
